Laboratory results: patent US20220289837A1, “Cystic Fibrosis Transmembrane Conductance Regulator Stabilizing Agents” (VIB VZW, priority 2019, published 2022)

How the values were obtained:
[1] = biological target: T1, F508del-2PT-NBD1 (Homo sapiens, UniProt P13569, A534P/DEL508-508/I539T/S492P/V470M); assay: Thermal shift assay (DSF) of F508del-2PT-NBD1; assay type: binding
T1 construct: His6-SUMO (N, cleaved yes); made in house; host or cells: Escherichia coli BL21(DE3) pLysS
Description: (§1) Solutions of either 2PT-NBD1 or F508del-2PT-NBD1 (10 μM final concentration), nanobodies (30 μM final concentration) and 2.5× or 5× concentrated SYPRO Orange Protein Stain (Molecular Probes) diluted in 20 mM HEPES pH 7.5, 150 mM NaCl, 3 mM MgCl2, 2 mM ATP and 10% (w/v) glycerol, 10% (w/v) ethylene glycol, were added to the wells of a 96-well PCR plates type BR white (VWR) in a final volume of 25 μl. Plates were sealed with EasySeal sheets (Molecular dimensions) and spun 2 min at 900× g. SYPRO orange fluorescence was monitored in CFX96 Touch Real-Time PCR Detection System (Bio-Rad) using FRET scan mode from 10 to 80° C. in increments of either 1° C. or 0.2° C.

[2] = biological target: T2, wt-CFTR (Homo sapiens, UniProt P13569); assay: Flow cytometry on permeabilized BHK-21 cells overexpressing wt-CFTR; assay type: cell-based; design: expressed in transfected cells; details: compared to negative control nanobody
Description: (§2) Parental BHK-21 cells (ATCC; CCL-10) and cells stably overexpressing human wt-CFTR^[43,44,47] or 2PT-F508del-CFTR, as described above, were permeabilized with 0.01% n-Dodecyl-β-D-Maltopyranoside β-DDM—Inalco) at least for 2 h on ice. In the meantime, cells were incubated with 50 μg/ml nanobodies and DRAQ7 (0.3 μM—Biostatus) to monitor the permeabilization state. Nanobody binding was detected by using His-tag specific antibody (Invitrogen, catalogue number MA1-135, 1 μg/ml) or Myc-tag specific antibody (Invitrogen, catalogue number 13-2500, 2 μg/ml) and then anti-mouse-Alexa Fluor 488 (Invitrogen, catalogue number A11001, 1.3 μg/ml) at least for 30 min on ice. Cells were washed one time between each step by centrifugation (200×g for 5 min at 4° C.). All incubations (100 μl) and washes (1.5 ml) were performed in PBS with 6% fetal bovine serum (FBS) and 0.01%13-DDM on ice. Cells fluorescence was measured with Gallios Flow Cytometer (Beckman Coulter). Data were analyzed with Kaluza software.

[3] = biological target: T3, stab-CFTR: 2PT/ΔRI/R1048A_1172X (Homo sapiens, UniProt P13569, A534P/DEL405-436/I539T/R1048A/S492P); assay: NanoDSF thermostability of stab-CFTR; assay type: binding; details: versus stab-CFTR alone
T3 construct: made in house; host or cells: BHK-21 cells (ATCC CCL-10), pNUT vector
Description: Purified stabilized human CFTR (stab-CFTR: 2PT/ΔRI/R1048A_1172X) was concentrated to 0.5 mg/ml and mixed with 0.1 mg/ml nanobody (^˜[…]) and capillaries were loaded with a volume of 10 The capillaries were placed into trays of Prometheus NT.48 (Nanotemper) and subjected to the fluorescence analysis. The emission of fluorescent radiation with the wavelengths of 330 nm and 350 nm was measured with the temperature changes from 25 to 85° C., with the rate of 1° C. min-1. The first derivative of 350 nm fluorescence was used to determine the melting temperature of the proteins.

[4] = biological target: T4, 2PT-NBD1 (Homo sapiens, UniProt P13569, A534P/I539T/S492P/V470M); assay: Thermal shift assay (DSF) of 2PT-NBD1; assay type: binding; details: versus isolated 2PT-NBD1
T4 construct: 2PT-NBD1 mutants (residues 387-646 containing the mutations S492P, A534P, I539T); His6-SUMO (N, cleaved yes); made in house; host or cells: Escherichia coli BL21(DE3) pLysS
Description: as §1

[5] = biological target: T2, wt-CFTR; assay: CFTR pull-down from solubilized BHK-21 cells with immunoblot; assay type: binding; design: expressed in transfected cells; details: immunoblot with mAb 596
Description: Human wt-CFTR was extracted from BHK-21 cells pellet by solubilization with 1% DMNG in PBS with proteases inhibitors for 1 h at 4° C. The cells debris were removed by centrifugation (16,000×g for 30 min at 4° C.). Supernatant was diluted 10 times in PBS with proteases inhibitors plus 10 mM imidazole and incubated at least for 30 min on HisPur Ni-NTA Resin (Thermo Scientific) pre-loaded with nanobodies. Resin was washed with 40 column volumes of PBS with 300 mM NaCl. Nanobodies were eluted with 200 mM imidazole in PBS. Presence of CFTR in each sample was detected by SDS-PAGE and immuno-blotting.
Cell extracts were separated by SDS-PAGE on 7.5% polyacrylamide gel and transferred to nitrocellulose membrane (Bio-Rad) for immunodetection. After blocking for 1 h with 5% bovine serum albumin (BSA) in Tris-buffered saline added 0.05% Tween-20 (TBST), CFTR was detected using monoclonal antibody mAb 596, IgG2b (CFTR Antibody Distribution Program, dilution 1:46) for 1 h in blocking buffer. Blot was washed 3 times 5 min and incubated with anti-mouse-HRP antibody (Millipore, catalogue number: AP308P, 0.2 μg/ml) for 1 h in TBST. Membrane was washed 3 times for 5 min. CFTR was visualized by chemiluminescence using Luminata Forte Western HRP Substrate (Millipore) and detected with ImageQuant 400 (GE Healthcare).

[6] = biological target: T1, F508del-2PT-NBD1; assay: NBD1 ELISA dose-response, nanobody binding to immobilized F508del-2PT-NBD1; details: F508del-2PT-NBD1 versus 2PT-NBD1
Description: For dose-response assays, Nunc MaxiSorp 96-well plates (ThermoScientific), were coated with 5 μg/ml NeutrAvidin Biotin-Binding protein (ThermoScientific) overnight at 4° C. and blocked 2 h at room temperature (RT) with 2% milk in phosphate-buffered saline (PBS). Each new reagent addition was preceded by three washes with 200 μl of NBD1 buffer (20 mM HEPES pH 7.5, 150 mM NaCl, and 10% (w/v) glycerol, 10% (w/v) ethylene glycol, 2 mM ATP, 3 mM MgCl2). Then, biotinylated purified NBD1 proteins at 5 μg/ml were immobilized 30 min at RT followed by 1 h RT incubation with 100 μl various concentrations (0-20 μg/ml) of purified nanobodies. Signal detection was followed using His-tag specific antibody (Invitrogen, catalogue number: MA1-135, 1:3000 dilution) to detect the nanobodies and secondary antibody anti-mouse coupled to horse radish peroxidase (HRP) (Millipore, catalogue number: AP308P, 1:5000 dilution). 50 μl of 1-Step UltraTMB-ELISA (ThermoScientific) was used as a substrate for the peroxidase and intensity of the reaction was proportional to absorbance measured at 450 nm with SynergyMx (BioTek) after addition of 50 μl H2SO4 at 1M.
(§3) Affinity constants (KD) and thermodynamic parameters from ITC experiments were determined using one-site binding model with MicroCal Origin 7.0 software (Origin Lab Corp.). Dose response ELISA curves of each Nb binding to either isolated NBD1 or purified FL-CFTR were fitted using the sigmoidal dose-response equation from GraphPad Prism 3. DSC data were analyzed with the MicroCal Origin 7.0 software (Origin Lab Corp.), from which the unfolding temperature (Tm) was obtained.

[7] = biological target: T4, 2PT-NBD1; assay: Isothermal titration calorimetry (ITC) of nanobodies into 2PT-NBD1; assay type: binding; details: 20° C., 2PT-NBD1, mean±SD (n=3)
Description: Interactions between nanobodies and 2PT-NBD1 was carried out on NanoITC system (TA Instruments) in 0.165 ml cells at 20° C., 300 rpm syringe stirring. Proteins were extensively dialyzed in 20 mM Hepes buffer pH 7.5, 150 mM NaCl, 10% (w/v) glycerol, 10% (w/v) ethylene glycol, 2 mM ATP and 3 mM MgCl2 for 16 h at 4° C. Heat of dilution from control experiments of each nanobody titrated into buffer was subtracted from the titration into 2PT-NBD1. Data were integrated analyzed with Origin 7.0 software (Origin Lab Corp.).
as §3

[8] = system: parental BHK-21 cells; assay: Flow cytometry on parental BHK-21 cells; assay type: cell-based, hamster; details: compared to negative control nanobody
Description: as §2

T1 sequence (P13569 with tags, fused parts or gaps V470M/S492P/DEL508-508/A534P/I539T limits assumed): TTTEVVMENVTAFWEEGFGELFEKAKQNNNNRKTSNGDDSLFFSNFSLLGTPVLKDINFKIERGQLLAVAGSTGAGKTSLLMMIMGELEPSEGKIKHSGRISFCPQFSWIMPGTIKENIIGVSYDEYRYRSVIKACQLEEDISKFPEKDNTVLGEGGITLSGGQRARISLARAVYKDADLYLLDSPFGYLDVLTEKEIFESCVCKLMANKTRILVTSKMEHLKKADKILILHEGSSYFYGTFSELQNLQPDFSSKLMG
T2 sequence (P13569 whole entry): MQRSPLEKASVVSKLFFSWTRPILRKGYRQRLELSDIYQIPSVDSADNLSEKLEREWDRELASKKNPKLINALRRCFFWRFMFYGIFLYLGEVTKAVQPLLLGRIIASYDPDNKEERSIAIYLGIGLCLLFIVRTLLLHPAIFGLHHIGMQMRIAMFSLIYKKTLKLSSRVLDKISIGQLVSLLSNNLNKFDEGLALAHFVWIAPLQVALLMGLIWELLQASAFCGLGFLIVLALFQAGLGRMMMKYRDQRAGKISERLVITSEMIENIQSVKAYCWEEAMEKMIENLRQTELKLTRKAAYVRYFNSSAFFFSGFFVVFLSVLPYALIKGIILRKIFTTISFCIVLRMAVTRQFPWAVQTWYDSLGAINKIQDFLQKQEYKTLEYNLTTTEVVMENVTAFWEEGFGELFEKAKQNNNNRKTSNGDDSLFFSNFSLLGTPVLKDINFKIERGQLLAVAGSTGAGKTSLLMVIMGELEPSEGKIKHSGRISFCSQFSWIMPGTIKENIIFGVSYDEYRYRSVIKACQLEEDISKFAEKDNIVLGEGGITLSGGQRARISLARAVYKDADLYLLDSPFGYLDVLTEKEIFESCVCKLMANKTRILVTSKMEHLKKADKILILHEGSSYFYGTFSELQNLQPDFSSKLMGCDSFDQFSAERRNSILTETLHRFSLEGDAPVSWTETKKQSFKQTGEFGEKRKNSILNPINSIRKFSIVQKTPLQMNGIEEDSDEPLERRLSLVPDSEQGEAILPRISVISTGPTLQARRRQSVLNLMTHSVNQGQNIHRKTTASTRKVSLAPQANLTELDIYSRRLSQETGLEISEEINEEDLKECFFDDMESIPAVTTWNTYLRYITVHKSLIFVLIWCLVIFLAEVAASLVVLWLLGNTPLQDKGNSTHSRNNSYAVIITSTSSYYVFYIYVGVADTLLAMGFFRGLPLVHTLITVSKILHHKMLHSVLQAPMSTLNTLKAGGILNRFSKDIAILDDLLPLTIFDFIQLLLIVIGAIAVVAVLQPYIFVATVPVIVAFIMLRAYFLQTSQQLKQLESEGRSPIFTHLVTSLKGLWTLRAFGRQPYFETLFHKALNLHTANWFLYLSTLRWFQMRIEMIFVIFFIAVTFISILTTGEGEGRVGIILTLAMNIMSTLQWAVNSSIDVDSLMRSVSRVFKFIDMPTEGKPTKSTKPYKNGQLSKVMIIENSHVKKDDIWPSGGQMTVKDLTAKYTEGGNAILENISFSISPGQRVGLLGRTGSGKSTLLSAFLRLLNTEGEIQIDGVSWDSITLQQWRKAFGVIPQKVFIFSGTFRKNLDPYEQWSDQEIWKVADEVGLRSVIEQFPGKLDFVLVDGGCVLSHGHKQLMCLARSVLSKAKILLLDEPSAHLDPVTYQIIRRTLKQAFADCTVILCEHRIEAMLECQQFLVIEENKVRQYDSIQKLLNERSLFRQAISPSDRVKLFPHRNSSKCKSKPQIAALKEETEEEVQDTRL
T4 sequence (P13569 388-646 V470M/S492P/A534P/I539T): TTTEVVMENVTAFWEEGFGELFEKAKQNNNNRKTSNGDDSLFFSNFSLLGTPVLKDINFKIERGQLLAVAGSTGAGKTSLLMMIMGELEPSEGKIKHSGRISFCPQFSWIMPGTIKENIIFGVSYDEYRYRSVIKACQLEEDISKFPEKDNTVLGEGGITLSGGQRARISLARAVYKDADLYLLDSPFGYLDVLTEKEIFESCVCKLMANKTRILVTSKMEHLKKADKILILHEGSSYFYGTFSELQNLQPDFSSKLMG
T3 sequence (P13569 with tags, fused parts or gaps DEL405-436/S492P/A534P/I539T/R1048A limits assumed): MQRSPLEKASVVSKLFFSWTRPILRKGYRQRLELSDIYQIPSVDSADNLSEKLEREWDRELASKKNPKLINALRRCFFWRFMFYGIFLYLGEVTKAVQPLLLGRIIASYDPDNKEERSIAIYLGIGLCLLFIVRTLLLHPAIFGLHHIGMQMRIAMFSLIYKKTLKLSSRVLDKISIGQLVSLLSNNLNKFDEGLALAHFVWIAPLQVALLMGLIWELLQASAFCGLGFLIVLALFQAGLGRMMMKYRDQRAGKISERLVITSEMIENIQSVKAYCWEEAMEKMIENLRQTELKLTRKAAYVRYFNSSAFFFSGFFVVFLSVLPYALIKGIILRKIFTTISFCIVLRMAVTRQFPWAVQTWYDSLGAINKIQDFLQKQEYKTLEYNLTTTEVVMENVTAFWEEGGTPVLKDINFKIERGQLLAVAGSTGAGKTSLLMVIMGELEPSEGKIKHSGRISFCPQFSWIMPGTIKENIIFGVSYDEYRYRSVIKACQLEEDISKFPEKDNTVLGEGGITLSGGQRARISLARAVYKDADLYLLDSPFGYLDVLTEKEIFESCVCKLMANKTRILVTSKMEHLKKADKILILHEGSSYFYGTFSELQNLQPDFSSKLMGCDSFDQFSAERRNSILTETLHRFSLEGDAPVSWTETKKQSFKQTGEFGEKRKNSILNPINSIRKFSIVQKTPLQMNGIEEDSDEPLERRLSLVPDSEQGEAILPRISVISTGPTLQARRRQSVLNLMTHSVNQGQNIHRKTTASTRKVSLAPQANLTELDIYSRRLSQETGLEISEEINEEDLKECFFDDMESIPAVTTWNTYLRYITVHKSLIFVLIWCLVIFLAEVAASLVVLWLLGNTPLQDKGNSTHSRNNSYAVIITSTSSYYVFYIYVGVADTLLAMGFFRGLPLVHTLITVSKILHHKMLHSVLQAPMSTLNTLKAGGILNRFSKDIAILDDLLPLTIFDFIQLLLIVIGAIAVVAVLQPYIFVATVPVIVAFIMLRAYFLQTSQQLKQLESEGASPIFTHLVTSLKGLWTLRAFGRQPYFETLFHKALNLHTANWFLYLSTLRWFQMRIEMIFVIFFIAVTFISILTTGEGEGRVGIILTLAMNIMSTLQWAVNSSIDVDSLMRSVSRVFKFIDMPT

B1: T4: nanobody, SEQ ID NO:6, binds epitope 2 including F508, stabilizes wild type CFTR (protein)
VHH: QVQLQESGGGLVQAGGSLRLSCAASGSTFAIIAMGWYRQAPGKQRELVAVISTGDTRYADSVKGRFTISRDNAKNTVYLQMDSLRPEDTAVYYCNAAVQVRDYRNYWGQGTQVTVSS
modifications: T4 Nanobody amino acid sequence
stabilization of F508del-2PT-NBD1 [1]: did not stabilize | labelling of BHK-21 cells overexpressing wt-CFTR [2]: increased labelling | thermostabilization of stab-CFTR (Tm increase) [3]: 8 °C | increase of Tm of 2PT-NBD1 [4]: 12.5 °C | pull-down of cellular CFTR, electrophoresis pattern (mature band C) [5]: also observed | effect of F508del mutation on binding [6]: drastically affected | Kd [7]: 37.9 ± 7 nM | labelling of parental BHK-21 cells [8]: no difference in labelling
